The experiment deals with OTLD1-RFP (Arabidopsis). In words: FRET or BRET.

B1: LSH10-GFP (natural protein)
chain: MSSPRERGKSLMESSGSEPPVTPSRYESQKRRDWNTFGQYLKNQRPPVPMSHCSCNHVLDFLRYLDQFGKTKVHVPGCMFYGQPEPPAPCTCPLRQAWGSLDALIGRLRAAYEENGGPPETNPFASGAIRVYLREVRECQAKARGIPYKKKKKKKPTPEMGGGREDSSSSSSSFSFS
Turning to B1, the %AB-FRET (donor dequenching) came to 13%.

Source of the values: article doi:10.1101/2022.07.30.502139.
